This is an account of results in patent US20260055184A1 (Hoffmann-La Roche, published 2026).

In experiment [1] the target is T1, CD3 binder CH2527 (VL_7-46(13)/VH_3-23(12)), as analyte MAK<CEA/CD3>rH.
T1 construct: the rest of the analyte MAK<CEA/CD3>rH (a CEA/CD3 molecule by its name) is not described
The experiment in a line: SPR (Biacore), 25°C, analyte MAK<CEA/CD3>rH.

The target in experiment [2] is T1, CD3 binder CH2527 …. The experiment can be described thus: SPR (Biacore), 37°C, analyte MAK<CEA/CD3>rH. For orientation: SPR reads the build-up and loss of mass on a sensor chip optically.
For experiment [3], the target named is T2, HER1 extracellular domain (human, UniProt P00533 25-645).
T2 construct: extracellular domain
The experiment in a line: SPR Biacore T100; HER1 extracellular domain amine-coupled on CM5, antibody injected at 3.125-50 nM, 1:1 Langmuir model. The procedure:
(§1) HER1 was immobilized on the surface of a CM5 biosensorchip using standard amine-coupling chemistry. The HER1 extracellular domain was injected in sodium acetate, pH 5.0 at 1 μg/ml. Reference control flow cells were treated in the same way but with vehicle buffer only. […] The association phase was 3 minutes and the dissociation time was 10 minutes. […] Kinetic rate constants and equilibrium dissociation constants were calculated by using the 1:1 Langmuir binding model within the Biaevaluation software.

Experiment [4] deals with T2, HER1 extracellular domain. The experiment in a line: SPR (Biacore T100), HER1 extracellular domain amine-coupled on a CM5 chip, antibody as analyte, 37 °C, 1:1 Langmuir model. The procedure: as §1

B1: anti-idiotypic CH2527 binder 4.15.64 (scFv)
scFv: QIQLVQSGPELKKPGETVRISCKASGYTFTDYSIHWVKQAPGKCLKWMGWINTETGEPAYADDFKGRFAFSLETSASTAYLQINNLKNEDTATFFCAHPYDYDVLDYWGQGTSVTVSSGGGGSGGGGSGGGGSGGGGSDTVLTQSPASLGVSLGQRATISCRASKSVSTSNYSYIHWYQQKPGQPPKLLIKYVSYLESGVPARFSGSGSGTDFTLNIHPVEEEDAATYYCQHSREFPWTFGCGTKLEIK
notes: From mouse hybridomas (immunisation with CH2527 Fab)
As a reminder, the Kd is the equilibrium constant for the complex coming apart. A high value points to a looser complex. Broadly, the koff is a measure of how fast the partners let go of each other. Higher therefore signals a short-lived complex. For orientation: kon means a measure of how fast the partners come together. Read a high kon as fast association. In experiment [1], B1 gave a dissociation constant Kd of 96 nM, a koff of 0.0025 s⁻¹ and a kon of 26100 M⁻¹ s⁻¹. In experiment [2], this molecule showed an equilibrium dissociation constant (Kd) of 94 nM, a koff of 0.0135 s⁻¹ and an on-rate (kon) of 144000 M⁻¹ s⁻¹.

B2: 4.24.72 (antibody, V domains shown)
VH: QIQLVQSGPELKKPGETVKISCKASGYTVTDYSMNWVKQAPGKCLKWMGWINTETGEPRYTDDFKGRFAFSLETSASTAYLQINNLKNEDSATYFCAREGDYDVFDYWGHGTTLKVSS
VL: DIVLTQSPASLAVSLGQRATISCRASKSVSTSSYSYMHWYQQKPGQPPKLLIKYVSYLESGVPARFSGSGSGTDFTLNIHPVEEEDAATYYCQHSREFPYTFGCGTKLEIK
Take B2: in experiment [1], the dissociation constant Kd was found to be 14 nM, the off-rate constant (koff) worked out at 0.00118 s⁻¹ and the on-rate (kon) turned out to be 87200 M⁻¹ s⁻¹. Also, in experiment [2], the Kd turned out to be 29 nM, the koff amounted to 0.00445 s⁻¹ and the kon was determined as 155000 M⁻¹ s⁻¹.

B3: HER1-binding IgG1 antibody GA201 (antibody, V domains shown)
VH: QVQLVQSGAEVKKPGSSVKVSCKASGFTFTDYKIHWVRQAPGQGLEWMGYFNPNSGYSTYAQKFQGRVTITADKSTSTAYMELSSLRSEDTAVYYCARLSPGGYYVMDAWGQGTTVTVSS
VL: DIQMTQSPSSLSASVGDRVTITCRASQGINNYLNWYQQKPGKAPKRLIYNTNNLQTGVPSRFSGSGSGTEFTLTISSLQPEDFATYYCLQHNSFPTFGQGTKLEIKR
notes: produced in 293-F cells; also called anti HER1 antibody GA201; GA201 parental unmasked antibody
In the case of B3, the affinity in experiment [3], expressed as Kd, was 1 nM. In experiment [4], this molecule returned a koff of 0.00012 s⁻¹ and an on-rate constant (kon) of 168000 M⁻¹ s⁻¹.

B4: anti-idiotypic CH2527 binder 4.32.63 (scFv)
scFv: QVQLKESGPGLVAPSQSLSITCTVSGFSLTSYGVSWVRQPPGKCLEWLGIIWGDGSTNYHSALISRLSISKDNSKSQVFLKLNSLQTDDTATYYCAKGITTVVDDYYAMDYWGQGTSVTVSSGGGGSGGGGSGGGGSGGGGSDIQMTQSPASLSASVGETVTITCRASENIDSYLAWYQQKQGKSPQLLVYAATFLADDVPSRFSGSGSGTQYSLKINSLQSEDVARYYCQHYYSTPYTFGCGTKLEIK
notes: as for B1
On to B4, for which, in experiment [1], the Kd is 1 nM, the koff was 0.000105 s⁻¹ and the kon was 196000 M⁻¹ s⁻¹. In experiment [2], binding was put at a Kd of 2 nM, the dissociation rate constant (koff) worked out at 0.000652 s⁻¹ and the kon was found to be 346000 M⁻¹ s⁻¹.
